Key:
Test in all cases: synthetic bead recruitment assay in embryos (fluorescence intensity at ALFA-tag-Nanobody-coupled beads)
mCherry-TACC = mCherry-TACC (UniProt Q9VN51); conditions: beads injected into embryos expressing mCherry-TACC and AurA-GFP with mRNA encoding ALFA-tagged Spd-2; beads-only background est. 0.65; parent: est. 2.0; read off a plot
AurA-GFP = AurA-GFP (UniProt Q27393); conditions: beads injected into embryos expressing mCherry-TACC and AurA-GFP with mRNA encoding ALFA-tagged Spd-2; beads-only background est. 0.5; parent: est. 2.1; read off a plot
Polo-GFP = Polo-GFP (UniProt P52304); conditions: beads injected into embryos expressing RFP-Cnn and Polo-GFP with mRNA encoding ALFA-tagged Spd-2; beads-only background est. 1.0; parent: est. 2.0; read off a plot
RFP-Cnn = RFP-Cnn (UniProt P54623); conditions: beads injected into embryos expressing RFP-Cnn and Polo-GFP with mRNA encoding ALFA-tagged Spd-2; beads-only background est. 0.75; parent: est. 2.4; read off a plot
Chain of UniProt P54623 (P54623 whole entry): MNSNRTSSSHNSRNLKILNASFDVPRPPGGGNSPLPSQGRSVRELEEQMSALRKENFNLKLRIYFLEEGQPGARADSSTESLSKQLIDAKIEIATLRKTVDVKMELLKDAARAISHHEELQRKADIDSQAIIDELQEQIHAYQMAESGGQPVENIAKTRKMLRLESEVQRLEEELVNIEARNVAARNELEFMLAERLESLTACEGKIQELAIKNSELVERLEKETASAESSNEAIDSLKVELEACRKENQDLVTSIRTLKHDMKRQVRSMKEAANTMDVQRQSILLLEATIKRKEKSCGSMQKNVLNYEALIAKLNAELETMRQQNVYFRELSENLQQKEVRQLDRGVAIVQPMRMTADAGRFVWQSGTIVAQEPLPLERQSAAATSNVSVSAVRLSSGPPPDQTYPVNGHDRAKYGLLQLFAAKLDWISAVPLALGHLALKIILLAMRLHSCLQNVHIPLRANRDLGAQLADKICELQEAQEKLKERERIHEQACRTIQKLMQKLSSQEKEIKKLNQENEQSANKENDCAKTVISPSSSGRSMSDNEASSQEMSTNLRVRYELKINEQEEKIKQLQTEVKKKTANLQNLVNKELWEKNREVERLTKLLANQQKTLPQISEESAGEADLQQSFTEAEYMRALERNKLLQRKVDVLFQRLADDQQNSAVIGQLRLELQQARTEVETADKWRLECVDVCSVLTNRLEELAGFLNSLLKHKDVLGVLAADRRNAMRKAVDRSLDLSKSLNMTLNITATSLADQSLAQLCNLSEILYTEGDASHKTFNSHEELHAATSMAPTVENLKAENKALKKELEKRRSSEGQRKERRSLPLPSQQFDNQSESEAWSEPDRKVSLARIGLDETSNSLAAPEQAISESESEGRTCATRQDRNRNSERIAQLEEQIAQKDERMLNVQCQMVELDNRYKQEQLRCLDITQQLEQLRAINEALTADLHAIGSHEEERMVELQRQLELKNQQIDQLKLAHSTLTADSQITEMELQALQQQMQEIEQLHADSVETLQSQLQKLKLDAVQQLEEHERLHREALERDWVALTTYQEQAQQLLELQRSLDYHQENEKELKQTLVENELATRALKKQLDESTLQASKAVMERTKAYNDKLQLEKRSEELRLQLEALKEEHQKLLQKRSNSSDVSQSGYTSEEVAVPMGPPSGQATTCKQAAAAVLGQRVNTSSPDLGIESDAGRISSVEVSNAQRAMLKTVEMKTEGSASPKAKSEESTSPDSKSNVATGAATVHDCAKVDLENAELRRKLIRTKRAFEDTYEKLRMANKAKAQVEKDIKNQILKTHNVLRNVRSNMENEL

Chain of UniProt Q27393 (Q27393 entry or part of it): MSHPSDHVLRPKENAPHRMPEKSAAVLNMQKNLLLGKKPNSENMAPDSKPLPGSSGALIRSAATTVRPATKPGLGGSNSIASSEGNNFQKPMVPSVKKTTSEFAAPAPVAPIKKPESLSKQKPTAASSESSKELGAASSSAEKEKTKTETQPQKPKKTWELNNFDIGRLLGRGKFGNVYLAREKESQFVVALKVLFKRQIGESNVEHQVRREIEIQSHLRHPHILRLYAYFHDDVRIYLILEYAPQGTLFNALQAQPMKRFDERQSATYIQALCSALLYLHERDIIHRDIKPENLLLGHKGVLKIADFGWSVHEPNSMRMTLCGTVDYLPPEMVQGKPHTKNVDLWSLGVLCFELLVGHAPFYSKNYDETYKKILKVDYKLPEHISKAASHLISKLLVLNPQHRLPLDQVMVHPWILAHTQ
Chain of UniProt P52304 (P52304 whole entry): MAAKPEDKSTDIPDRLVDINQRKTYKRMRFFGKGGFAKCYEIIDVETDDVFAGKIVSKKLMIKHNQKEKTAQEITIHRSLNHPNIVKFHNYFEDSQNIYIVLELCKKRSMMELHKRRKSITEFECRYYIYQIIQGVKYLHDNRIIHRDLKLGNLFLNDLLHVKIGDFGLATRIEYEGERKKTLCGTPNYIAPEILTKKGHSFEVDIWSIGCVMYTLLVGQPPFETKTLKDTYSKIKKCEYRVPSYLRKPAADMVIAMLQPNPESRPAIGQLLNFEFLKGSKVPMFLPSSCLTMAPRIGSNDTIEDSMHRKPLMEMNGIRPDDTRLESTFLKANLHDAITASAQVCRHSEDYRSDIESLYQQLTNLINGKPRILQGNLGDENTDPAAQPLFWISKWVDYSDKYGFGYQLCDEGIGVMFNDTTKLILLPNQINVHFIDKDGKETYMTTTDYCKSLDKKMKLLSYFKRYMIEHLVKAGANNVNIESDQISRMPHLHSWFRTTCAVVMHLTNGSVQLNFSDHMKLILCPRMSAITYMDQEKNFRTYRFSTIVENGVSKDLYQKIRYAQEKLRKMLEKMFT
Chain of UniProt Q9VN51 (Q9VN51 entry or part of it): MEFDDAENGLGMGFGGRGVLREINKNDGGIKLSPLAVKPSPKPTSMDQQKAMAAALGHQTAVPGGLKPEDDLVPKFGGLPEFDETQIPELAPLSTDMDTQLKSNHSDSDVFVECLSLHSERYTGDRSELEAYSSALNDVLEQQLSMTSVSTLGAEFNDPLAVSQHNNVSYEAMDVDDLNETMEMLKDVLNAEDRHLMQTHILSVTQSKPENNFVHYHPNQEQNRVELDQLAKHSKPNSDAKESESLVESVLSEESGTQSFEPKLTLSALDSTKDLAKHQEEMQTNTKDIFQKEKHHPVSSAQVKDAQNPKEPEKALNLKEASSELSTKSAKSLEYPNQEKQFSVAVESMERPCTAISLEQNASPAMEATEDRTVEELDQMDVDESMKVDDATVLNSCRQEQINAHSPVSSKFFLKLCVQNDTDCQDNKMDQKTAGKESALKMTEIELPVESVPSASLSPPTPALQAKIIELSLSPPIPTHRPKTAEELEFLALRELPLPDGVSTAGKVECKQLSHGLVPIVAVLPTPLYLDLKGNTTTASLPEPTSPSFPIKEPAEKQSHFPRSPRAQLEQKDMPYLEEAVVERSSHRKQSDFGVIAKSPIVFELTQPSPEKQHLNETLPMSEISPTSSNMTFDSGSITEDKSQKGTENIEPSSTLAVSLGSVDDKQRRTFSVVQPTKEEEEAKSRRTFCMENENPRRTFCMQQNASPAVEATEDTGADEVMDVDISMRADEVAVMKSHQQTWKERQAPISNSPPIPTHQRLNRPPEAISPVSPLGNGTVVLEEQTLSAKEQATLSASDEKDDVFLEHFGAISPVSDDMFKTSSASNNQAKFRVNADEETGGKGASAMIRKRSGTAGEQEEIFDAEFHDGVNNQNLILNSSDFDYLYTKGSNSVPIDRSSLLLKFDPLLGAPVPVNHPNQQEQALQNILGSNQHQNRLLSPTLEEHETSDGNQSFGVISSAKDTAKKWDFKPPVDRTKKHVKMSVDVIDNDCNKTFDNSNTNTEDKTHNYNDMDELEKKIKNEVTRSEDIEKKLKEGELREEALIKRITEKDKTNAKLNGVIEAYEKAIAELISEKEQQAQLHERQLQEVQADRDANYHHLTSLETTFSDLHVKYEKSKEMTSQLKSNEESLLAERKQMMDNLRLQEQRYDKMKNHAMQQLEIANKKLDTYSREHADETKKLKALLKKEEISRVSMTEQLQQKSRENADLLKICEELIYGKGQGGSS

- response (mCherry-TACC): 2.3 A.U.
- response (AurA-GFP): 2.3 A.U.
- response (Polo-GFP): 0.95 A.U.
- response (RFP-Cnn): 0.85 A.U.
Substance: WT Spd-2-ALFA (from UniProt Q9VV79) ∆Polo (all 34 S-S/T motifs mutated to T-S/T; individual positions not printed)

From paper PMC11804907
